Reference: PMC3823233 (Nature structural & molecular biology, 2013)

Experiments:
[1] = molecular target: BG505 SOSIP.664 gp140 trimer (HIV-1 clade A, isolate BG505 …, stabilised, glycosylated)
gp120 from strain JRCSF = gp120 from strain JRCSF (HIV-1 (isolate JRCSF), UniProt P20871); assay: ELISA
gp120 from strain JRFL = gp120 from strain JRFL (HIV-1 clade B, isolate JR-FL, UniProt Q75760, strain); assay: ELISA

| Binder | stoichiometry N [1] [Fabs per trimer] | binding result (gp120 from strain JRCSF) | binding result (gp120 from strain JRFL) |
| --- | --- | --- | --- |
| PGT 135 Fab (Fab, V domains shown) VH: QLQMQESGPGLVKPSETLSLSCTVSGDSIRGGEWGDKDYHWGWVRHSAGKGLEWIGSIHWRGTTHYKESLRRRVSMSIDTSRNWFSLRLASVTAADTAVYFCARHRHHDVFMLVPIAGWFDVWGPGVQVTVSS VL: EIVMTQSPDTLSVSPGETVTLSCRASQNINKNLAWYQYKPGQSPRLVIFETYSKIAAFPARFVASGSGTEFTLTINNMQSEDVAVYYCQQYEEWPRTFGQGTKVDIK | 3 |  |  |
| PGT 135 IgG (antibody, V domains shown) VH: QLQMQESGPGLVKPSETLSLSCTVSGDSIRGGEWGDKDYHWGWVRHSAGKGLEWIGSIHWRGTTHYKESLRRRVSMSIDTSRNWFSLRLASVTAADTAVYFCARHRHHDVFMLVPIAGWFDVWGPGVQVTVSS VL: EIVMTQSPDTLSVSPGETVTLSCRASQNINKNLAWYQYKPGQSPRLVIFETYSKIAAFPARFVASGSGTEFTLTINNMQSEDVAVYYCQQYEEWPRTFGQGTKVDIK |  | binds | binds |
